{"source": "patent US20120244144A1", "about": "(University of Texas, published 2012)", "test_in_all_cases": "SPR, mAb 1B7 immobilised ~1000 RU", "key": {"PTx-S1-220 T153A": {"target": "T1, PTx-S1-220 T153A (Bordetella pertussis strain Tohama I, UniProt P04977 36-255, T153A)", "T1 sequence": "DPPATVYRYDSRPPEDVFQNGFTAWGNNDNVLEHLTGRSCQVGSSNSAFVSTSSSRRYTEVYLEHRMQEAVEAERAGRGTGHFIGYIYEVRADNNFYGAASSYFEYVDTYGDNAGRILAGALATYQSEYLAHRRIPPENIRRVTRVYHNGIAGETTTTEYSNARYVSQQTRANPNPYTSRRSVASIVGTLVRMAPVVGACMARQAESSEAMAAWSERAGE"}, "PTx-S1-220 E155A": {"target": "T2, PTx-S1-220 E155A (Bordetella pertussis strain Tohama I, UniProt P04977 36-255, E155A)", "T2 sequence": "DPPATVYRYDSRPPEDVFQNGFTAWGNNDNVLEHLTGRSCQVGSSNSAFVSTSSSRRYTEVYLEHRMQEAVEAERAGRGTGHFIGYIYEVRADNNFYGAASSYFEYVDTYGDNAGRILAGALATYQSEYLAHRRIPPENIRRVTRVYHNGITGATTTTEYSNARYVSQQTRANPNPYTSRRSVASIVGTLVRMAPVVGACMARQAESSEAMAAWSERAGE"}, "PTx-S1-220 R39A": {"target": "T3, PTx-S1-220 R39A (Bordetella pertussis strain Tohama I, UniProt P04977 36-255, R39A)", "T3 sequence": "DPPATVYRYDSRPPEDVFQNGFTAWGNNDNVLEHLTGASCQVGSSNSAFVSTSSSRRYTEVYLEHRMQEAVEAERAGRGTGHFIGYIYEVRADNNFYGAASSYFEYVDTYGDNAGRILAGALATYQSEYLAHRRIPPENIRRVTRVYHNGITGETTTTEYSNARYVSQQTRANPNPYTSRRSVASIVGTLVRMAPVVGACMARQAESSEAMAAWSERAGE"}, "PTx-S1-220 E16A": {"target": "T4, PTx-S1-220 E16A (Bordetella pertussis strain Tohama I, UniProt P04977 36-255, E16A)", "T4 sequence": "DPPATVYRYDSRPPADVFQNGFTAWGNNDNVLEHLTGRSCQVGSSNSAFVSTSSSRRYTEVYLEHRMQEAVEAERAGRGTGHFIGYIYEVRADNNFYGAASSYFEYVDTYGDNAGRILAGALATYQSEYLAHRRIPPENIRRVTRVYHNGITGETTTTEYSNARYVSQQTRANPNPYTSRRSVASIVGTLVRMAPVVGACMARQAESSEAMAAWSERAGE"}, "PTx-S1-220 Y161A": {"target": "T5, PTx-S1-220 Y161A (Bordetella pertussis strain Tohama I, UniProt P04977 36-255, Y161A)", "T5 sequence": "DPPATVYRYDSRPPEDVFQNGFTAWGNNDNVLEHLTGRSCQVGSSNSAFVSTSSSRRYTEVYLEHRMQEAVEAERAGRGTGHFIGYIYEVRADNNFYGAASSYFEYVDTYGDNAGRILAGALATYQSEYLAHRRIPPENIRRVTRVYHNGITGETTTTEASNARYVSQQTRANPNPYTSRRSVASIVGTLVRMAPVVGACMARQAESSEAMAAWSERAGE"}, "PTx-S1-220 E210A": {"target": "T6, PTx-S1-220 E210A (Bordetella pertussis strain Tohama I, UniProt P04977 36-255, E210A)", "T6 sequence": "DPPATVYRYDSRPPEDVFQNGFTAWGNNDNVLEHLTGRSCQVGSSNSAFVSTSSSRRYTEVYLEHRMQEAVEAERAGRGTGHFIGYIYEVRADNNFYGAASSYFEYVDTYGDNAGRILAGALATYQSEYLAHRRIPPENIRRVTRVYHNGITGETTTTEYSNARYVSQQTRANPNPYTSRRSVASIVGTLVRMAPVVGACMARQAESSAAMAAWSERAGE"}, "PTx-S1-220 H83A": {"target": "T7, PTx-S1-220 H83A (Bordetella pertussis strain Tohama I, UniProt P04977 36-255, H83A)", "T7 sequence": "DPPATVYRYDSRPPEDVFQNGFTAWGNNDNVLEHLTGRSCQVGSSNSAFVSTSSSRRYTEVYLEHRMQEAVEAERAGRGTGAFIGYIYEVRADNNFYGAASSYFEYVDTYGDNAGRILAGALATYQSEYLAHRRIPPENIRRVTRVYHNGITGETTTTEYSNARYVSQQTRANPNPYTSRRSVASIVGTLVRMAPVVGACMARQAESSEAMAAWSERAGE"}, "PTx-S1-220 T156A": {"target": "T8, PTx-S1-220 T156A (Bordetella pertussis strain Tohama I, UniProt P04977 36-255, T156A)", "T8 sequence": "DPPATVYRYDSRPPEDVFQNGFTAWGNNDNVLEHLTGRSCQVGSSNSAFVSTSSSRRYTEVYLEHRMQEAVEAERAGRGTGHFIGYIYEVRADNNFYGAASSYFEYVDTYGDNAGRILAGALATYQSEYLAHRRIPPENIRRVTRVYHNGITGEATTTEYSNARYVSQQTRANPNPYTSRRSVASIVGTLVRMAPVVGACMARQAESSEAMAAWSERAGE"}, "PTx-S1-220 R79A": {"target": "T9, PTx-S1-220 R79A (Bordetella pertussis strain Tohama I, UniProt P04977 36-255, R79A)", "T9 sequence": "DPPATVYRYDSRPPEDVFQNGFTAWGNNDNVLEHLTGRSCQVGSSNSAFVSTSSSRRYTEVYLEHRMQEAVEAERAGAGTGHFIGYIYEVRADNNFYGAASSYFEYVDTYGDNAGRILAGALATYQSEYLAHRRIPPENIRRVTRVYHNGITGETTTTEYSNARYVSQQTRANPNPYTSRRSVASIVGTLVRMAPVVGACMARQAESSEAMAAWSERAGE"}, "PTx-S1-220 T159A": {"target": "T10, PTx-S1-220 T159A (Bordetella pertussis strain Tohama I, UniProt P04977 36-255, T159A)", "T10 sequence": "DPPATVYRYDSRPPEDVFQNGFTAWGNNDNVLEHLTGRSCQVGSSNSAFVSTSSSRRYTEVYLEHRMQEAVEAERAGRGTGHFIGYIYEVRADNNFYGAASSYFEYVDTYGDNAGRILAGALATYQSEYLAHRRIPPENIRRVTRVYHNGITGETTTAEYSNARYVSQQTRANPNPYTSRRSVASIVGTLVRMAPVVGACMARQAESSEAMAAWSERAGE"}}, "data": [{"binder": "monoclonal antibody 1B7 (antibody, also called mAb 1B7; 1B7 mAb) DIQMTQSPALMSASPGEKVTMTCSASSSVSFMYWYQQKPRSSPKPWIYLTSNLPSGVPARFSGSGSGTSYSLTISSMEAEDAATYYCQQWSSHPPTFGSGTKLEIKRGGGGSGGGGSGGGGSGGGGSEVQLQQSGSELVRPGASVKLSCKASGYKFTSYWMHWVKQRPGQGLEWIGNIFPGSGSTNYDEKFNSKATLTVDTSSNTAYMQLSSLTSEDSAVYYCTRWLSGAYFDYWGQGTTLTVSSASGA", "values": [{"measurement": "koff", "setting": "PTx-S1-220 T153A", "result": 0.002, "unit": "s⁻¹"}, {"measurement": "koff", "setting": "PTx-S1-220 E155A", "result": 0.0011, "unit": "s⁻¹"}, {"measurement": "koff", "setting": "PTx-S1-220 R39A", "result": 0.003, "unit": "s⁻¹"}, {"measurement": "koff", "setting": "PTx-S1-220 E16A", "result": 0.0016, "unit": "s⁻¹"}, {"measurement": "koff", "setting": "PTx-S1-220 Y161A", "result": 0.0013, "unit": "s⁻¹"}, {"measurement": "koff", "setting": "PTx-S1-220 E210A", "result": 0.0016, "unit": "s⁻¹"}, {"measurement": "koff", "setting": "PTx-S1-220 H83A", "result": 0.01, "unit": "s⁻¹"}, {"measurement": "koff", "setting": "PTx-S1-220 T156A", "result": 0.0011, "unit": "s⁻¹"}, {"measurement": "koff", "setting": "PTx-S1-220 R79A", "result": 0.025, "unit": "s⁻¹"}, {"measurement": "koff", "setting": "PTx-S1-220 T159A", "result": 0.0014, "unit": "s⁻¹"}]}]}
